B1: FAM46D (parent)
chain: LELKFVSSLRRQFEFSVDSFQIVL

Variants of: B1
Assay: protein stability index of a GFP-peptide fusion (GPS, HEK-293T) (PSI 1-6); higher = more stable
Conditions: c terminus: a fixed tail appended
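Also: lentivirally expressed fusions sorted by FACS into six bins by GFP to DsRed ratio, PSI derived from sequencing read proportions per bin multiplied by bin number.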

| Variant | protein stability index |
| --- | --- |
| LELSFVSSLRRQFEFSVDSFQIVL [K4S] | 3.75 |
| LELVFVSSLRRQFEFSVDSFQIVL [K4V] | 4.21 |
| LELYFVSSLRRQFEFSVDSFQIVL [K4Y] | 2.06 |
| LELKAVSSLRRQFEFSVDSFQIVL [F5A] | 3.94 |
| LELKCVSSLRRQFEFSVDSFQIVL [F5C] | 3.27 |
| LELKDVSSLRRQFEFSVDSFQIVL [F5D] | 2.09 |
| LELKEVSSLRRQFEFSVDSFQIVL [F5E] | 1.4 |
| LELKGVSSLRRQFEFSVDSFQIVL [F5G] | 2.6 |
| LELKIVSSLRRQFEFSVDSFQIVL [F5I] | 3.77 |
| LELKKVSSLRRQFEFSVDSFQIVL [F5K] | 1.64 |
| LELKLVSSLRRQFEFSVDSFQIVL [F5L] | 1.96 |
| LELKMVSSLRRQFEFSVDSFQIVL [F5M] | 4.22 |
| LELKNVSSLRRQFEFSVDSFQIVL [F5N] | 2.37 |
| LELKPVSSLRRQFEFSVDSFQIVL [F5P] | 3.01 |
| LELKQVSSLRRQFEFSVDSFQIVL [F5Q] | 2.59 |
| LELKRVSSLRRQFEFSVDSFQIVL [F5R] | 2.39 |
| LELKSVSSLRRQFEFSVDSFQIVL [F5S] | 3.1 |
| LELKTVSSLRRQFEFSVDSFQIVL [F5T] | 2.8 |
| LELKVVSSLRRQFEFSVDSFQIVL [F5V] | 3.54 |
| LELKYVSSLRRQFEFSVDSFQIVL [F5Y] | 3.22 |
| LELKFASSLRRQFEFSVDSFQIVL [V6A] | 2.77 |
| LELKFCSSLRRQFEFSVDSFQIVL [V6C] | 2.22 |
| LELKFDSSLRRQFEFSVDSFQIVL [V6D] | 2.73 |
| LELKFESSLRRQFEFSVDSFQIVL [V6E] | 2.75 |

| Variant | protein stability index |
| --- | --- |
| LELKFFSSLRRQFEFSVDSFQIVL [V6F] | 2.38 |
| LELKFGSSLRRQFEFSVDSFQIVL [V6G] | 2.81 |
| LELKFHSSLRRQFEFSVDSFQIVL [V6H] | 2.9 |
| LELKFISSLRRQFEFSVDSFQIVL [V6I] | 2.95 |
| LELKFKSSLRRQFEFSVDSFQIVL [V6K] | 3.51 |
| LELKFLSSLRRQFEFSVDSFQIVL [V6L] | 2.81 |
| LELKFMSSLRRQFEFSVDSFQIVL [V6M] | 2.61 |
| LELKFNSSLRRQFEFSVDSFQIVL [V6N] | 4.62 |
| LELKFPSSLRRQFEFSVDSFQIVL [V6P] | 2.08 |
| LELKFQSSLRRQFEFSVDSFQIVL [V6Q] | 1.56 |
| LELKFRSSLRRQFEFSVDSFQIVL [V6R] | 3.15 |
| LELKFSSSLRRQFEFSVDSFQIVL [V6S] | 2.49 |
| LELKFTSSLRRQFEFSVDSFQIVL [V6T] | 3.31 |
| LELKFWSSLRRQFEFSVDSFQIVL [V6W] | 4 |
| LELKFYSSLRRQFEFSVDSFQIVL [V6Y] | 3.16 |
| LELKFVASLRRQFEFSVDSFQIVL [S7A] | 3.21 |
| LELKFVCSLRRQFEFSVDSFQIVL [S7C] | 3.17 |
| LELKFVDSLRRQFEFSVDSFQIVL [S7D] | 3.25 |
| LELKFVESLRRQFEFSVDSFQIVL [S7E] | 4.25 |
| LELKFVFSLRRQFEFSVDSFQIVL [S7F] | 4.35 |
| LELKFVGSLRRQFEFSVDSFQIVL [S7G] | 2.76 |
| LELKFVHSLRRQFEFSVDSFQIVL [S7H] | 3.18 |
| LELKFVISLRRQFEFSVDSFQIVL [S7I] | 2.85 |
| LELKFVKSLRRQFEFSVDSFQIVL [S7K] | 2.57 |

| Variant | protein stability index |
| --- | --- |
| LELKFVMSLRRQFEFSVDSFQIVL [S7M] | 3.02 |
| LELKFVNSLRRQFEFSVDSFQIVL [S7N] | 1.88 |
| LELKFVPSLRRQFEFSVDSFQIVL [S7P] | 2.67 |
| LELKFVQSLRRQFEFSVDSFQIVL [S7Q] | 2.43 |
| LELKFVRSLRRQFEFSVDSFQIVL [S7R] | 2.91 |
| LELKFVTSLRRQFEFSVDSFQIVL [S7T] | 1.5 |
| LELKFVWSLRRQFEFSVDSFQIVL [S7W] | 2.37 |
| LELKFVYSLRRQFEFSVDSFQIVL [S7Y] | 3.11 |
| LELKFVSALRRQFEFSVDSFQIVL [S8A] | 2.57 |
| LELKFVSCLRRQFEFSVDSFQIVL [S8C] | 2.96 |
| LELKFVSDLRRQFEFSVDSFQIVL [S8D] | 2.97 |
| LELKFVSFLRRQFEFSVDSFQIVL [S8F] | 1.95 |
| LELKFVSGLRRQFEFSVDSFQIVL [S8G] | 2.81 |
| LELKFVSHLRRQFEFSVDSFQIVL [S8H] | 3.22 |
| LELKFVSKLRRQFEFSVDSFQIVL [S8K] | 2.05 |
| LELKFVSLLRRQFEFSVDSFQIVL [S8L] | 3.46 |
| LELKFVSMLRRQFEFSVDSFQIVL [S8M] | 3.34 |
| LELKFVSNLRRQFEFSVDSFQIVL [S8N] | 2.92 |
| LELKFVSPLRRQFEFSVDSFQIVL [S8P] | 2.69 |
| LELKFVSQLRRQFEFSVDSFQIVL [S8Q] | 2.95 |
| LELKFVSRLRRQFEFSVDSFQIVL [S8R] | 2.15 |
| LELKFVSTLRRQFEFSVDSFQIVL [S8T] | 3 |
| LELKFVSVLRRQFEFSVDSFQIVL [S8V] | 1.71 |
| LELKFVSWLRRQFEFSVDSFQIVL [S8W] | 2.98 |

| Variant | protein stability index |
| --- | --- |
| LELKFVSYLRRQFEFSVDSFQIVL [S8Y] | 2.44 |
| LELKFVSSARRQFEFSVDSFQIVL [L9A] | 2.93 |
| LELKFVSSCRRQFEFSVDSFQIVL [L9C] | 3.2 |
| LELKFVSSDRRQFEFSVDSFQIVL [L9D] | 3.93 |
| LELKFVSSERRQFEFSVDSFQIVL [L9E] | 1.82 |
| LELKFVSSFRRQFEFSVDSFQIVL [L9F] | 2.95 |
| LELKFVSSHRRQFEFSVDSFQIVL [L9H] | 2.9 |
| LELKFVSSIRRQFEFSVDSFQIVL [L9I] | 2.75 |
| LELKFVSSKRRQFEFSVDSFQIVL [L9K] | 2.41 |
| LELKFVSSNRRQFEFSVDSFQIVL [L9N] | 2.64 |
| LELKFVSSPRRQFEFSVDSFQIVL [L9P] | 3.04 |
| LELKFVSSQRRQFEFSVDSFQIVL [L9Q] | 3.29 |
| LELKFVSSRRRQFEFSVDSFQIVL [L9R] | 3.73 |
| LELKFVSSSRRQFEFSVDSFQIVL [L9S] | 3.64 |
| LELKFVSSTRRQFEFSVDSFQIVL [L9T] | 2.99 |
| LELKFVSSVRRQFEFSVDSFQIVL [L9V] | 4.14 |
| LELKFVSSWRRQFEFSVDSFQIVL [L9W] | 3.47 |
| LELKFVSSYRRQFEFSVDSFQIVL [L9Y] | 2.01 |
| LELKFVSSLARQFEFSVDSFQIVL [R10A] | 3 |
| LELKFVSSLCRQFEFSVDSFQIVL [R10C] | 2.67 |
| LELKFVSSLFRQFEFSVDSFQIVL [R10F] | 2.79 |
| LELKFVSSLHRQFEFSVDSFQIVL [R10H] | 2.93 |

— the supplement of paper PMC10567573
